Marks after values point to notes of the source that are not given here.
Columns and labels:
[1] = Release of the drug compound from the drug complex in plasma (Example 8); assay type: in vitro ADME; conditions: 37° C., 50 μg/ml, after 20 hours
Protocol: (§1) (50 μg/ml). […] The released amount of the drug is expressed in percentage of the released amount of the drug to the amount of the drug in the drug complex used.

[2] = tested on: Meth A tumor-bearing mice; assay: Maximum tolerated dose of the drug complexes of Examples 5, 6 and 7 (Example 9); assay type: in vivo, BALB/c mice; conditions: for BWLmax, maximum body-weight reduction rate / N, mice died/mice used / day when the maximum body-weight reduction was observed: single administration on the 13th day
Protocol: Meth A cells were transplanted into BALB/c mice to prepare Meth A tumor-bearing mice. On the 13th day, the drug complexes obtained in Examples 5, 6 and 7 were singly administered. After the administration, measurement of the body weight and observation of toxic death were made with time, and the maximum body-weight reduction rate and mortality were calculated, which are shown in Table 5. The dose is expressed in terms of the weight of anhydrous free base of DX-8951.
On the basis of the dose in which body weight reduction and death were observed, MTD of each complex were judged as follows.

[3] = Release of the drug compound from the drug complex in Meth A homogenate (Example 8); assay type: in vitro ADME, murine; conditions: for released amount of the drug (DX-8951), percentage of the drug in the drug complex used: 37° C., 50 μg/ml, after 20 hours
Protocol: as §1

Meth A cells = assay: Antineoplastic activity of the complexes of Examples 1, 5 and 6 (Example 10); assay type: in vivo, BALB/c mice; conditions: for IR, diminution rate of the tumor: 21th day; for Average tumor weight: tumor weighed on the 21th day
Protocol: Meth A cells were transplanted into BALB/c mice to prepare Meth A tumor-bearing mice. On the 7th day after the transplantation, the drug complexes shown in Examples 1, 5 and 6 were singly administered, respectively. The weight of the tumor was measured on the 21th day to evaluate the inhibitory activity on the tumor and the toxicity. In the table, * represents significance in Dunnet's test (*** p<0.001, ** P<0.01, * P<0.05), the dose is expressed in terms of the weight of anhydrous free base of DX-8951, and IR represents the diminution rate of the tumor.

[4] = Release of the drug compound from the drug complex in buffer (Example 8); assay type: physicochemical; conditions: for released amount of the drug (DX-8951), percentage of the drug in the drug complex used: 37° C., 50 μg/ml, after 20 hours
Protocol: as §1

[5] = 0.15625 mg/kg, singly administered on the 7th day
[6] = 0.3125 mg/kg, singly administered on the 7th day
[7] = 0.625 mg/kg, singly administered on the 7th day
[8] = 1.25 mg/kg, singly administered on the 7th day
[9] = 1.875 mg/kg, singly administered on the 7th day

Carboxymethyldextran polyalcohol-Gly-Gly-Phe-Gly-NH-p-C 6H4—CH2—O—CO-DX-8951 [Example 5]
released amount of the drug (DX-8951), percentage of the drug in the drug complex used [1]: 0.13%
BWLmax, maximum body-weight reduction rate ([2]; 0.625 mg/kg): 2.0%
N, mice died/mice used ([2]; 0.625 mg/kg): 0/3
day when the maximum body-weight reduction was observed ([2]; 0.625 mg/kg): 14 days
BWLmax, maximum body-weight reduction rate ([2]; 1.25 mg/kg): 5.0%
N, mice died/mice used ([2]; 1.25 mg/kg): 0/3
day when the maximum body-weight reduction was observed ([2]; 1.25 mg/kg): 18 days
BWLmax, maximum body-weight reduction rate ([2]; 5 mg/kg): 28.6%
N, mice died/mice used ([2]; 5 mg/kg): 3/3
day when the maximum body-weight reduction was observed ([2]; 5 mg/kg): 18 days
BWLmax, maximum body-weight reduction rate ([2]; 10 mg/kg): 27.1%
N, mice died/mice used ([2]; 10 mg/kg): 3/3
day when the maximum body-weight reduction was observed ([2]; 10 mg/kg): 18 days
MTD relative to MTD of the drug complex obtained in Example 1 ([2]; Meth A tumor-bearing mice): about ⅓
N, mice died/mice used ([2]; […]): 3/3
released amount of the drug (DX-8951), percentage of the drug in the drug complex used ([3]; Meth A homogenate (pH 4.5)): 110.69%
released amount of the drug (DX-8951), percentage of the drug in the drug complex used ([3]; Meth A homogenate (pH 5.5)): 110.31%
released amount of the drug (DX-8951), percentage of the drug in the drug complex used ([3]; Meth A homogenate (pH 6.5)): 42.71%
release of the drug in words ([3]; weakly acidic homogenate): rapidly released
BWLmax, maximum body-weight reduction rate (Meth A cells; [5]): <0%
N, mice died/mice used (Meth A cells; [5]): 0/6
IR, diminution rate of the tumor (Meth A cells; [5]): 9%
Average tumor weight (Meth A cells; [5]): 2.394 ± 0.231 g
BWLmax, maximum body-weight reduction rate (Meth A cells; [6]): <0%
N, mice died/mice used (Meth A cells; [6]): 0/6
IR, diminution rate of the tumor (Meth A cells; [6]): 57%
Average tumor weight (Meth A cells; [6]): 1.128 ± 0.173*** g
BWLmax, maximum body-weight reduction rate (Meth A cells; [7]): <0%
N, mice died/mice used (Meth A cells; [7]): 0/6
IR, diminution rate of the tumor (Meth A cells; [7]): 88%
Average tumor weight (Meth A cells; [7]): 0.328 ± 0.164*** g
BWLmax, maximum body-weight reduction rate (Meth A cells; [8]): <0%
N, mice died/mice used (Meth A cells; [8]): 0/6
IR, diminution rate of the tumor (Meth A cells; [8]): 100%
Average tumor weight (Meth A cells; [8]): 0.010 ± 0.004*** g
BWLmax, maximum body-weight reduction rate (Meth A cells; [9]): 12.3%
N, mice died/mice used (Meth A cells; [9]): 0/6
day when the maximum body-weight reduction was observed (Meth A cells; [9]): 13 days
IR, diminution rate of the tumor (Meth A cells; [9]): 100%
Average tumor weight (Meth A cells; [9]): 0.011 ± 0.003*** g
minimal effective dose relative to that of the drug complex shown in Example 1 (Meth A cells; Meth A tumor-bearing mice): about ⅓
released amount of the drug (DX-8951), percentage of the drug in the drug complex used ([4]; Buffer (pH 4.5)): 0.79%
released amount of the drug (DX-8951), percentage of the drug in the drug complex used ([4]; Buffer (pH 5.5)): 0.71%
released amount of the drug (DX-8951), percentage of the drug in the drug complex used ([4]; Buffer (pH 6.5)): 0.8%
release of the drug in words ([4]; buffer): hardly released

Source: patent publication US6835807B1, “Drug complex and drug delivery system” (Daiichi Pharmaceuticals Co., Ltd., priority 1998, dated 2004)
